{
  "source": "patent US20210002649",
  "biological_target": "PD-1 Ligand (PD-L1) (UniProt Q9NZQ7)",
  "sequence (Q9NZQ7 19-290)": "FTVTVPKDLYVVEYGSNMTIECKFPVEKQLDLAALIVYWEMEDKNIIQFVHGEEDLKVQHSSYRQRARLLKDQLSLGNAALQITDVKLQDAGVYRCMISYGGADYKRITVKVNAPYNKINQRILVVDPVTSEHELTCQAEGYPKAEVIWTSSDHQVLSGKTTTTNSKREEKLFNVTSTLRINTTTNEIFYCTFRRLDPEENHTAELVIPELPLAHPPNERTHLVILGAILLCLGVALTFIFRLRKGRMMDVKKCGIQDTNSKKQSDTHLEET",
  "data": [
    {"substance": "WW domain containing E3 ubiquitin protein ligase 1 (WWP1)", "values": [
      {"measurement": "PD-L1 K63-linked poly-ubiquitination (gel images)", "result": "WWP1 triggers PD-L1 K63-linked poly-ubiquitination"},
      {"measurement": "PD-L1 ubiquitination (gel images)", "result": "WWP1 triggers PD-L1 ubiquitination in a catalytic dependent manner"}
    ]}
  ]
}
